The data set concerns MS2 coat protein. In words: apparent KD of MS2 coat protein; designed switch direction (-1 OFF switch, 1 ON switch): 1; higher = weaker reporter binding. The gist of the method: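 Apparent KD, taken as the median over clusters for each design, was obtained by curve-fitting normalised cluster fluorescence. Designed RNA switches had been transcribed on Illumina chips by stalled E. coli RNA polymerase and titrated with SNAP-549-labelled MS2 coat protein, doubling from 0.7 or 1.5 nM to 3 µM.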

Where [1] appears, read: input ligand: microRNA oligo, concentration not stated.
Setting [2] is: Eterna round: R95, input ligand: FMN 200 uM.
Where [3] appears, read: Eterna round: R95, input ligand: microRNA oligo, concentration not stated.
Setting [4] is: Eterna round: R95, input ligand: none.

For “AGCUUUUAAUCAGGAUAUGGUCACAUGAGGAUCACCCAUGUAACGAUGAUAUAAUGUGGUCAAGACUAGAAGGGAUUGCUAACA [SameState NG2 #67] (Eterna round: R96, puzzle: Same State NG 2)”, the “apparent KD of MS2 coat protein” value stood at 172 nM (input ligand: FMN 200 uM), 232 nM under setting [1] and 288 nM (input ligand: none).

For the sequence “AGGAUAACACAUGAGGAUCACCCAUGUAUUAUUAUUACAAGCUUUUUGCUCGUUUUUAAUAAUACAUGUGUUAUUUU [Default title] (puzzle: Sensor for hsa-mir-208a version 2)”, the “apparent KD of MS2 coat protein” value by setting is: under setting [2], 88.2 nM; under setting [3], 88.7 nM; under setting [4], 133 nM.

Consider “AGGCUCAGACGAGGAUAUGAUCAUGGCGCUUCGGCGCAUACAUGAGGAUCACCCAUGUAGGGUGAUCAGAAGGCGUCUGAGCCA [SSNG2/8-A1] (Eterna round: R96, puzzle: Same State NG 2)”, for which the “apparent KD of MS2 coat protein” value (input ligand: FMN 200 uM) was determined as 42.1 nM, the “apparent KD of MS2 coat protein” value under setting [1] worked out at 225 nM and the “apparent KD of MS2 coat protein” value (input ligand: none) was 314 nM.

For “AGGUUCGUGCUAGGAUAUCUAGGAUAUGGACGAGGAUUACCCGAGCAGGAUUACCGCACCAGAGGAGAGAAGGAGCAACAAGAG [pwkr ssNG2 2F5 2FMN.13] (Eterna round: R96, puzzle: Same State NG 2)”, the “apparent KD of MS2 coat protein” value is, setting by setting: (input ligand: FMN 200 uM) 0.959 nM; under setting [1], 5.01 nM; (input ligand: none) 420 nM.

Regarding “AGUAGUGUAACAUGAGGAUCACCCAUGUAAGAAGAUGUAACCUAGGAUAUGGAUGAUAUGUUAGACCAGAAGGAGGAUUGUUUA [JR_SSNG3_Sub039] (Eterna round: R96, puzzle: Same State NG 3)”, the “apparent KD of MS2 coat protein” value (input ligand: FMN 200 uM) turned out to be 43.2 nM, the “apparent KD of MS2 coat protein” value under setting [1] came out at 116 nM and the “apparent KD of MS2 coat protein” value (input ligand: none) was found to be 207 nM.

On to “AGUAGUUUAACAUGAGGAUCACCCAUGUAUCUAUCUGUAACCUAGGAUAUGGACGUUUUAUUUAACCAGAAGGAGGAUCGUUUA [JR_SSNG3_Sub045] (Eterna round: R96, puzzle: Same State NG 3)”, for which the “apparent KD of MS2 coat protein” value was determined as 17.1 nM (input ligand: FMN 200 uM), 16.9 nM under setting [1] and 25.3 nM (input ligand: none).

As to “AGUCCAGCAAGAGCUGGACAAAAGCAUGUACAUGAGGAUCACCCAUGUUCAUGUACAAGCUUUUAGCUCGUCUUAAA [Mat - hsa-mir-208a - Mod of JL - 58] (puzzle: Sensor for hsa-mir-208a)”, the “apparent KD of MS2 coat protein” value reads like this: under setting [2], 505 nM; under setting [3], 14.2 nM; under setting [4], 570 nM.

For the sequence “AGUCCAGCAUAAGCUGGACAAAAGCAUGUACAUGAGGAUCACCCAUGUCAUGUACAAGCUUUUUGCUCGUCUUAAUA [Mat - hsa-mir-208a - Mod of JL - D36] (puzzle: Sensor for hsa-mir-208a)”, the “apparent KD of MS2 coat protein” value under setting [2] worked out at 446 nM, the “apparent KD of MS2 coat protein” value under setting [3] was 19.8 nM and the “apparent KD of MS2 coat protein” value under setting [4] is 500 nM.

For “AGUCCAGCCAAAGCUGGACAAAAGCAUGUACAUGAGGAUCACCCAUGUUCAUGUACAAGCUUUUUGCAAGUCAAAAG [Mat - hsa-mir-208a - Mod of JL - 77] (puzzle: Sensor for hsa-mir-208a)”, the “apparent KD of MS2 coat protein” value under setting [2] worked out at 332 nM, the “apparent KD of MS2 coat protein” value under setting [3] was 29.5 nM and the “apparent KD of MS2 coat protein” value under setting [4] is 498 nM.

Regarding “AGUCCAGCCUGAGCUGGACAAAAGCAUGUACAUGAGGAUCACCCAUGUCAUGUACAAGCUUUUUGCUCGUCUAAAUA [Mat - hsa-mir-208a - Mod of JL - D27] (puzzle: Sensor for hsa-mir-208a)”, the “apparent KD of MS2 coat protein” value is, setting by setting: under setting [2], 516 nM; under setting [3], 15.8 nM; under setting [4], 699 nM.

As for “AGUCCAGCCUGAGCUGGACAAAAGCAUGUACAUGAGGAUCACCCAUGUCAUGUACAAGCUUUUUGCUCGUCUUAAAA [JL zipper 46] (Eterna round: R96, puzzle: Sensor for hsa-mir-208a)”, the “apparent KD of MS2 coat protein” value is 685 nM (input ligand: FMN 200 uM), 13 nM under setting [1] and 677 nM (input ligand: none).

Source of the values: the supplement of paper PMC9170038.
